Measured values: IntAct's records for PubMed 37582800

B1: Protein MalY (Escherichia coli (strain K12)), P23256 (parent)
chain: MFDFSKVVDRHGTWCTQWDYVADRFGTADLLPFTISDMDFATAPCIIEALNQRLMHGVFGYSRWKNDEFLAAIAHWFSTQHYTAIDSQTVVYGPSVIYMVSELIRQWSETGEGVVIHTPAYDAFYKAIEGNQRTVMPVALEKQADGWFCDMGKLEAVLAKPECKIMLLCSPQNPTGKVWTCDELEIMADLCERHGVRVISDEIHMDMVWGEQPHIPWSNVARGDWALLTSGSKSFNIPALTGAYGIIENSSSRDAYLSALKGRDGLSSPSVLALTAHIAAYQQGAPWLDALRIYLKDNLTYIADKMNAAFPELNWQIPQSTYLAWLDLRPLNIDDNALQKALIEQEKVAIMPGYTYGEEGRGFVRLNAGCPRSKLEKGVAGLINAIRAVR
partner: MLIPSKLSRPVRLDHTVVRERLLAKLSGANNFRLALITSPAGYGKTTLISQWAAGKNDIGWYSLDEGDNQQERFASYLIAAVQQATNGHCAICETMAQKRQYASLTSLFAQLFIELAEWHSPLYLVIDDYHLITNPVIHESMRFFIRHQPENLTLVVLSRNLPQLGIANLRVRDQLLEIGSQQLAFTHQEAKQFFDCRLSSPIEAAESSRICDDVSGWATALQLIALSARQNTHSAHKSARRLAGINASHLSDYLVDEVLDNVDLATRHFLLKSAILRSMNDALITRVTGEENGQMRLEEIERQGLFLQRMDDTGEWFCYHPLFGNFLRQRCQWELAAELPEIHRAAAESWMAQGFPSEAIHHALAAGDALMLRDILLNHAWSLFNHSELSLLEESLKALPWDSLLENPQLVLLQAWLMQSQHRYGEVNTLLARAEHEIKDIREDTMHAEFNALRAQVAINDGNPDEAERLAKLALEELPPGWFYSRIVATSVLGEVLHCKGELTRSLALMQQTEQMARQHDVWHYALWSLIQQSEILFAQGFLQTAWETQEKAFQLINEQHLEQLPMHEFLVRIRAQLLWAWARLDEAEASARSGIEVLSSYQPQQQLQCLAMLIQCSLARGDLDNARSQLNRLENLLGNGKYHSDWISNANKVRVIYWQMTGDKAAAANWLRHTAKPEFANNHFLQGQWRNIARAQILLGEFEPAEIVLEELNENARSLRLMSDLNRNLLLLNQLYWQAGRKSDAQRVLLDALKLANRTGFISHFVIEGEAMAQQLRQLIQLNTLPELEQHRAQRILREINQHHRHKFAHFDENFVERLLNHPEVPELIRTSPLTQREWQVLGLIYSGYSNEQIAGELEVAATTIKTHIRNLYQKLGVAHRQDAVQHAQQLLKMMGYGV
B2: HTH-type transcriptional regulator MalT (Escherichia coli (strain K12)), P06993 (parent)
chain: B1 partner
partner: B1 chain

Variants of: B1
Details: with malt_ecoli malT

| Variant | effect of a mutation on the interaction |
| --- | --- |
| D182A;E185A;S218A | with no effect |

Variants of: B2
Details: with maly_ecoli malY

| Variant | effect of a mutation on the interaction |
| --- | --- |
| R143A;R173A | disrupting interaction strength |
| R143A | disrupting interaction strength |
| R173A | disrupting interaction strength |
| N169A | with no effect |
| E140A | with no effect |
